# In patent US20200397896A1, “Combination Therapies Comprising Daratumumab, Bortezomib, Thalidomide and Dexamethasone and Their Uses” (Janssen Biotech, Inc., priority 2019, published 2020):
# Experiments:
# [1] = system: anti-daratumumab antibodies; assay: Immunogenicity in clinical trials; assay type: in vivo, human
# Source text: As with all therapeutic proteins, there is the potential for immunogenicity. The detection of antibody formation is highly dependent on the sensitivity and specificity of the assay. Additionally, the observed incidence of antibody (including neutralizing antibody) positivity in an assay may be influenced by several factors including assay methodology, sample handling, timing of sample collection, concomitant medications, and underlying disease. For these reasons, comparison of the incidence of antibodies to daratumumab in the studies described below with the incidence of antibodies in other studies or to other products may be misleading. […] One patient administered DARZALEX as combination therapy, developed transient neutralizing antibodies against daratumumab. However, this assay has limitations in detecting anti-daratumumab antibodies in the presence of high concentrations of daratumumab; therefore, the incidence of antibody development might not have been reliably determined.
# [2] = system: adult patients with relapsed and refractory multiple myeloma; assay: DARZALEX monotherapy safety, three open-label clinical trials
# Source text: (§2) The median duration of exposure was 3.3 months (range: 0.03 to 20.04 months).
# [3] = system: adult patients with relapsed and refractory multiple myeloma; conditions: human, in vivo
# Source text: as §2
# [4] = system: patients with multiple myeloma; assay: Clinical trials pooled (monotherapy and combination treatments; N=2,066), safety
# [5] = DARZALEX solution pH and storage of diluted solution; assay type: physicochemical
# Source text: Prepare the solution for infusion using aseptic technique as follows: • Calculate the dose (mg), total volume (mL) of DARZALEX solution required and the number of DARZALEX vials needed based on patient actual body weight. • Check that the DARZALEX solution is colorless to pale yellow. […] Infusion bags/containers must be made of either polyvinylchloride (PVC), polypropylene (PP), polyethylene (PE) or polyolefin blend (PP+PE). Dilute under appropriate aseptic conditions. Discard any unused portion left in the vial. • Gently invert the bag/container to mix the solution. […] The diluted solution may develop very small, translucent to white proteinaceous particles, as daratumumab is a protein. […] (59° F.-77° F.) and in room light. Diluted solution may be kept at room temperature for a maximum of 15 hours (including infusion time). • If not used immediately, the diluted solution can be stored prior to administration for up to 24 hours at refrigerated conditions 2° C.-8° C. (36° F.-46° F.) and protected from light.
# DARZALEX is supplied as a colorless to pale yellow preservative-free solution for intravenous infusion in single-dose vials. The pH is 5.5.
# [6] = system: patients with relapsed or refractory multiple myeloma who had received at least 2 different cytoreductive therapies; assay: GEN501 open-label dose escalation trial, DARZALEX monotherapy efficacy; assay type: in vivo, human
# Source text: (§1) Treatment continued until unacceptable toxicity or disease progression.
# [7] = Clinical pharmacokinetics of daratumumab; conditions: 1 to 24 mg/kg monotherapy or 1 to 16 mg/kg combination therapy
# [8] = system: patients with relapsed or refractory multiple myeloma who had received at least 3 prior lines of therapy; assay: SIRIUS open-label trial, DARZALEX monotherapy efficacy; assay type: in vivo, human
# Source text: as §1
# [9] = system: patients with multiple myeloma; conditions: human, in vivo
# [10] = human, in vivo
# [11] = system: patients with newly diagnosed multiple myeloma eligible for ASCT; conditions: in vivo
# Source text: Safety evaluations will include adverse event monitoring, physical examinations, electrocardiogram monitoring (ECGs), clinical laboratory parameters (hematology and chemistry), vital sign measurements, and Eastern Cooperative Oncology Group (ECOG) performance status.
# In general, adverse events that occurred during the induction/consolidation and maintenance stages will be summarized separately. Treatment-emergent adverse events for each stage will be defined as events that occur or worsen after administration of the first dose of during that stage and through 30 days after the last dose of study drug in that stage and before the next phase of treatment begins.
# Melphalan 200 mg/m^2 was pre-ASCT high-dose therapy.
# [12] = monotherapy 16 mg/kg, N = 156, treatment-emergent laboratory abnormality
substance,measurement,setting,value
"DARZALEX: IgG1κ human monoclonal antibody against CD38; HC SEQ ID NO: 9, LC SEQ ID NO: 10",patients positive for anti-daratumumab antibodies,[1]; 111 evaluable monotherapy patients,none
same,patients positive for anti-daratumumab antibodies,"[1]; 1,050 evaluable combination therapy patients",2
same,patients who developed transient neutralizing antibodies against daratumumab,[1]; combination therapy,One
same,Serious adverse reaction: general physical health deterioration,[2]; monotherapy,3%
same,Serious adverse reaction: pneumonia,[2]; monotherapy,6%
same,Serious adverse reaction: pyrexia,[2]; monotherapy,3%
same,discontinuations due to adverse reactions,[2]; monotherapy,4%
same,treatment delay due to adverse reactions,[2]; monotherapy,15%
same,"Arthralgia, Any Grade","[2]; monotherapy 16 mg/kg, N = 156",17%
same,"Arthralgia, Grade 3","[2]; monotherapy 16 mg/kg, N = 156",0%
same,"Arthralgia, Grade 4","[2]; monotherapy 16 mg/kg, N = 156",0%
same,"Back pain, Any Grade","[2]; monotherapy 16 mg/kg, N = 156",23%
same,"Back pain, Grade 3","[2]; monotherapy 16 mg/kg, N = 156",2%
same,"Back pain, Grade 4","[2]; monotherapy 16 mg/kg, N = 156",0%
same,"Chills, Any Grade","[2]; monotherapy 16 mg/kg, N = 156",10%
same,"Chills, Grade 3","[2]; monotherapy 16 mg/kg, N = 156",0%
same,"Chills, Grade 4","[2]; monotherapy 16 mg/kg, N = 156",0%
same,"Constipation, Any Grade","[2]; monotherapy 16 mg/kg, N = 156",15%
same,"Constipation, Grade 3","[2]; monotherapy 16 mg/kg, N = 156",0%
same,"Constipation, Grade 4","[2]; monotherapy 16 mg/kg, N = 156",0%
same,"Cough, Any Grade","[2]; monotherapy 16 mg/kg, N = 156",21%
same,"Cough, Grade 3","[2]; monotherapy 16 mg/kg, N = 156",0%
same,"Cough, Grade 4","[2]; monotherapy 16 mg/kg, N = 156",0%
same,"Decreased appetite, Any Grade","[2]; monotherapy 16 mg/kg, N = 156",15%
same,"Decreased appetite, Grade 3","[2]; monotherapy 16 mg/kg, N = 156",1%
same,"Decreased appetite, Grade 4","[2]; monotherapy 16 mg/kg, N = 156",0%
same,"Diarrhea, Any Grade","[2]; monotherapy 16 mg/kg, N = 156",16%
same,"Diarrhea, Grade 3","[2]; monotherapy 16 mg/kg, N = 156",1%
same,"Diarrhea, Grade 4","[2]; monotherapy 16 mg/kg, N = 156",0%
same,"Dyspnea, Any Grade","[2]; monotherapy 16 mg/kg, N = 156",15%
same,"Dyspnea, Grade 3","[2]; monotherapy 16 mg/kg, N = 156",1%
same,"Dyspnea, Grade 4","[2]; monotherapy 16 mg/kg, N = 156",0%
same,"Fatigue, Any Grade","[2]; monotherapy 16 mg/kg, N = 156",39%
same,"Fatigue, Grade 3","[2]; monotherapy 16 mg/kg, N = 156",2%
same,"Fatigue, Grade 4","[2]; monotherapy 16 mg/kg, N = 156",0%
same,"Headache, Any Grade","[2]; monotherapy 16 mg/kg, N = 156",12%
same,"Headache, Grade 3","[2]; monotherapy 16 mg/kg, N = 156",1%
same,"Headache, Grade 4","[2]; monotherapy 16 mg/kg, N = 156",0%
same,"Hypertension, Any Grade","[2]; monotherapy 16 mg/kg, N = 156",10%
same,"Hypertension, Grade 3","[2]; monotherapy 16 mg/kg, N = 156",5%
same,"Hypertension, Grade 4","[2]; monotherapy 16 mg/kg, N = 156",0%
same,"Infusion reaction, Any Grade","[2]; monotherapy 16 mg/kg, N = 156",48%
same,"Infusion reaction, Grade 3","[2]; monotherapy 16 mg/kg, N = 156",3%
same,"Infusion reaction, Grade 4","[2]; monotherapy 16 mg/kg, N = 156",0%
same,"Musculoskeletal chest pain, Any Grade","[2]; monotherapy 16 mg/kg, N = 156",12%
same,"Musculoskeletal chest pain, Grade 3","[2]; monotherapy 16 mg/kg, N = 156",1%
same,"Musculoskeletal chest pain, Grade 4","[2]; monotherapy 16 mg/kg, N = 156",0%
same,"Nasal congestion, Any Grade","[2]; monotherapy 16 mg/kg, N = 156",17%
same,"Nasal congestion, Grade 3","[2]; monotherapy 16 mg/kg, N = 156",0%
same,"Nasal congestion, Grade 4","[2]; monotherapy 16 mg/kg, N = 156",0%
same,"Nasopharyngitis, Any Grade","[2]; monotherapy 16 mg/kg, N = 156",15%
same,"Nasopharyngitis, Grade 3","[2]; monotherapy 16 mg/kg, N = 156",0%
same,"Nasopharyngitis, Grade 4","[2]; monotherapy 16 mg/kg, N = 156",0%
same,"Nausea, Any Grade","[2]; monotherapy 16 mg/kg, N = 156",27%
same,"Nausea, Grade 3","[2]; monotherapy 16 mg/kg, N = 156",0%
same,"Nausea, Grade 4","[2]; monotherapy 16 mg/kg, N = 156",0%
same,"Pain in extremity, Any Grade","[2]; monotherapy 16 mg/kg, N = 156",15%
same,"Pain in extremity, Grade 3","[2]; monotherapy 16 mg/kg, N = 156",1%
same,"Pain in extremity, Grade 4","[2]; monotherapy 16 mg/kg, N = 156",0%
same,"Pneumonia, Any Grade","[2]; monotherapy 16 mg/kg, N = 156",11%
same,"Pneumonia, Grade 3","[2]; monotherapy 16 mg/kg, N = 156",6%
same,"Pneumonia, Grade 4","[2]; monotherapy 16 mg/kg, N = 156",0%
same,"Pyrexia, Any Grade","[2]; monotherapy 16 mg/kg, N = 156",21%
same,"Pyrexia, Grade 3","[2]; monotherapy 16 mg/kg, N = 156",1%
same,"Pyrexia, Grade 4","[2]; monotherapy 16 mg/kg, N = 156",0%
same,"Vomiting, Any Grade","[2]; monotherapy 16 mg/kg, N = 156",14%
same,"Vomiting, Grade 3","[2]; monotherapy 16 mg/kg, N = 156",0%
same,"Vomiting, Grade 4","[2]; monotherapy 16 mg/kg, N = 156",0%
same,"Anemia, Any Grade",[2]; [12],45%
same,"Anemia, Grade 3",[2]; [12],19%
same,"Anemia, Grade 4",[2]; [12],0%
same,"Lymphopenia, Any Grade",[2]; [12],72%
same,"Lymphopenia, Grade 3",[2]; [12],30%
same,"Lymphopenia, Grade 4",[2]; [12],10%
same,"Neutropenia, Any Grade",[2]; [12],60%
same,"Neutropenia, Grade 3",[2]; [12],17%
same,"Neutropenia, Grade 4",[2]; [12],3%
same,"Thrombocytopenia, Any Grade",[2]; [12],48%
same,"Thrombocytopenia, Grade 3",[2]; [12],10%
same,"Thrombocytopenia, Grade 4",[2]; [12],8%
same,"Serious adverse reactions, patients","[2]; monotherapy, 156 patients",33%
same,herpes zoster,[3],3%
same,Grade 3/4 infusion reaction at Week 2 or subsequent infusions,"[4]; N=2,066",Less than 1%
same,"incidence of any grade infusion reactions, Week 2 infusion","[4]; N=2,066",2%
same,"incidence of any grade infusion reactions, first (16 mg/kg, Week 1) infusion","[4]; N=2,066",37%
same,"incidence of any grade infusion reactions, subsequent infusions (cumulatively)","[4]; N=2,066",6%
same,incidence of infusion modification due to reactions,"[4]; N=2,066",36%
same,patients who experienced an infusion reaction,"[4]; clinical trials, all patients",approximately half
same,persistence of positive indirect antiglobulin test after the last infusion,"[4]; human, in vivo",up to 6 months
same,storage time of diluted solution at refrigerated conditions,"[5]; 2° C.-8° C., protected from light",up to 24 hours
same,storage time of diluted solution at room temperature (including infusion time),"[5]; 15° C.-25° C., room light, diluted in 0.9% Sodium Chloride",≤ 15 h
same,pH of solution,[5]; single-dose vial solution,5.5
same,"CR, number of patients",[6]; GEN501,1
same,"VGPR, number of patients",[6]; GEN501,3
same,median duration of response,[6]; GEN501,not estimable
same,median time to response,[6]; GEN501,1 month
same,Overall response rate,"[6]; GEN501, 42 patients, 16 mg/kg",36%
same,area under the concentration-time curve (AUC) versus dose,[7],increases more than proportionally
same,median duration of response,[8],7.4 months
same,median time to response,[8],1 month
same,Overall response rate (ORR),[8]; N = 106,(29.2%)
same,Partial response (PR),[8]; N = 106,(17.0%)
same,Stringent complete response (sCR),[8]; N = 106,(2.8%)
same,Very good partial response (VGPR),[8]; N = 106,(9.4%)
same,Hepatitis B virus reactivation,[9],less than 1%
same,"linear clearance, mean±SD",[10],171.4 ± 95.3 mL/day
same,"terminal half-life associated with linear clearance, mean±SD",[10],18 ± 9 days
same,time to steady state into the every 4-week dosing period,[10],approximately 5 months
same,"trough serum concentration (Cmin) at the end of weekly dosing, mean±SD",[10],573 ± 332 µg/mL
same,volume of distribution,[10],4.7 ± 1.3 L
same,IRRs Grade 3 or 4 at re-initiation following ASCT,[11],< 1%
same,"incidence of IRRs, first infusion following ASCT",[11],11%
